According to patent publication US5621078:

Biological target: epidermal growth factor receptor (Homo sapiens (Human)) (UniProt P00533)

Substance TGF-alpha - PE40 AB (ligand) has an A431 CELL KILLING EC50 pM of 47 pM.
